The DeepSol protein solubility set

Assay: soluble on expression in E. coli; label from the status in PepcDB or PDB records

Soluble on expression in E. coli, not soluble:
MGSDKIHHHHHHMLYRTNPKNGDKLSILGFGAMRLPTKEDGSIDEEKATKMVRYAIDNGVNLVDTAWPYHMGECEPFLARALSEGYREKVKLSTKLPTWAVNTREDMDKFLNAQLEKLNTKQIDYYLLHTLTKASWAKIKDLGVIDFLNSAKEDGRIKNAGFSYHGMQEDFAPIVDDYNWDFCLIQYNYLDEKVQAGTKGLKYAASKGLGVFVMEPLRGGNLAGKTPEEVMEIWNKADKKRTTVEWALRWVWNHPEVTSVLSGMTEPEQLEENIKIAEEGYPNSLTQKELGLIEQAALKYGELLKINCTGCGYCMPCPANVDIPTCFGIYNNLHMFHDETQRFQYFATLSDIFWTNEPHFASQCTNCGICIEKCPQYIQIPEMLEKVVAEFEGPDNDEKMAMVKSVFKM
MGSDKIHHHHHHMMAVLHRSSDIIAATICRILIPQFYSDNTVPINGNYSCIFLLSYMFPLDSPLLADLYKKYRSRLISRIARLTGCRETAADLAQDAYMRLLDQTGVACPSNPAAYLFRIGRNLAIDHQRRPDFRQHDETSFEEELPSSFSGLDQQAVYRQECEQLWTAIMELPRPVSRALVLSVIEGVSQAAIAEELGVTERTVRRYISKGMAHCQRRLRNPLPPARYDR
MGSDKIHHHHHHMMKYIFRTFSCGSGDCIFLILKSGDYTLNLMIDCGKYTEEIDEYVRNSLKNKIDYLIVTHIDNDHINGLIKMLTQNPDLIIEHIIYNCYQRVINNEQPWTEQMKANVDRLYDQLPIVIDMLSQNVNEEKALTLAECILRKEEWRRAWQREYITDESPAIQLANNMGRIIFLSPSQVALDRLDVKYRKLFWQQLYKQKTEDYDGEETIYEALMRIAQLEEGEETKDENVNDDTINEQILKRYASRPLSKMDDNNIASIAFIWEYQGHRILLMGDADPEQVSNAIEKVYKDETKPVIFDLIKVSHHGSAHSTSCGLMDVIDSERFFFTGGGKERPSLQTLGRIIIRPLPNGIAYRDIRYNRPNEILNKLANLSVDEKGSLHIRVNHNENGYEVSC
MGSDKIHHHHHHMMPVRQTLSKPDIQLSYLEWNQGQEPLLLLHGLGDHALVWSSLGDYLAADYHIVAPDMRGHGESTKPERDYTFESAIADLEALMDHLGWTSAQIVSHSWTGKLAAIWARQNRKRLRSIILVDPIFIWKMPSLLRLTFPMLYRFLPFLKSMGPFTSHEEAEQQARQLKQYQGWSSLQEQVFQAGIEQKPDGSWGSKFTIAARDEIFEAVMQVPGFTIPLDIQALFIQPEQGLNRQDWQIQPYKTYLKKLRICQVPGNHWPFLTQPETFNQTVAAFLAEHR
MGSDKIHHHHHHMMQGFLLQTQSIRDEDLIVRVLTKNQLKTLYRFYGKRHSVLNVGRKIDFEEENDDKFLPKLRNILHLGYIWEREMERLFFWQRFCALLFRHLEGVHSLDSVYFDTLDDGANKLAKQHPLRVILEMYATLLNFEGRLQSYNSCFLCDAKLERSVALAQGFILAHPSCLKAKSLNLEKIQAFFRTQSTIDLETEEVEELWRTLNLGF
MGSDKIHHHHHHMMRENLAYLEPPLRIAILSQGPQLYSTKRLVEAAQARGHDVHIINPLKCYMNINMRQPSIHIAGKELPQFDAVIPRIGASITFYGSAVLRQFEMMGVYTINDSVGISRSRDKLRSMQLLSRKGIGLPITGFANKPSDIPDLIDMVGGAPLVVKLLEGTQGIGVVLAETRKAAESVLEAFMGLKANIMVQEYIKEANGADIRCFVLGDKVIAAMKRQAKAGEFRSNLHRGGTATLVKLSPEERTTAIRAAKTMGLSLAGVDLLRSNHGPVVMEVNSSPGLEGIEAATQKDVANAIIEFIEKNANKAKS
MGSDKIHHHHHHMMSAVADIQECRDFLAAHPQVKFVEVFFTSMTGVPRGKRLRVHELEAIYEYGRFLPGSVLVVDTNGADCEDTGLVWEDGDADRRARPVPGTLTLAPWLGPDVAQVMLSLYELDGTPNDLDPRHVLQRVLDRYAADGLTPVAACELEYYLVDLQRGPNGELLPAKSLQTGLRPTGIQVYGLPELEAHAPFLRELWDVADTLGVPLEGAISEFAPAQVELTLKHKPDALRAADDAVLYKRAAKGVALRHGMEATFMAKPWSDRAGNGFHVHLSVNDAAGNNLCASEDIEGSDLLKHAIGGMKVLLGEGMAILAPNANSYRRFKANSYAPVAPTWGVNNRTVSLRVPAGPPKTRHVEHRVAGADGNPYLVLAVLLASAHHGITNKIDPGPAVIGDGYAAAAKENIRLPNNWFAAVDLFEQSSVLRDYLGDRFVDMFVSVKRTEQARFFEVVTELDFDWYLRNA
